Test results reported in article PMC11640301, “Escherichia coli tRNA (Gm18) methyltransferase (TrmH) requires the correct localization of its methylation site (G18) in the D-loop for efficient methylation” (Journal of Biochemistry, 2023).
Where a chain is given by its changes, count along the chain named. Numbers in names are those of the source.

Legend:
[1] = biological target: E. coli TrmH (without a tag sequence) (Escherichia coli, UniProt P0AGJ2); test: radiometric filter assay, methyl transfer to tRNA transcript; format: biochemical; settings: methyl donor; 200 μM SAM, tRNA^SerCGA transcript, pH 7.6, 37 °C; labelled compound
[2] = biological target: T1, TrmH (tRNA Gm18 methyltransferase) (Escherichia coli HB101 (gene source), UniProt P0AGJ2 1-229); test: EMSA; 5 mM Mg-acetate, 400 mM KCl; no SAM listed; tRNA 4.25 uM, complex at enzyme below 10 uM; slightly weaker than T. thermophilus TrmH; 50 mM Tris-HCl pH 7.6, 5 mM Mg-acetate, 6 mM 2-mercaptoethanol, 400 mM KCl, 5% glycerol; room temperature 30 min; 4.25 uM tRNA, 0-17 uM TrmH; 6% native PAGE; settings: protein: recombinant; tags: none (pET30a, untagged); chain copies: 2; label: none; tRNA cloverleaf, long variable region
T1 sequence: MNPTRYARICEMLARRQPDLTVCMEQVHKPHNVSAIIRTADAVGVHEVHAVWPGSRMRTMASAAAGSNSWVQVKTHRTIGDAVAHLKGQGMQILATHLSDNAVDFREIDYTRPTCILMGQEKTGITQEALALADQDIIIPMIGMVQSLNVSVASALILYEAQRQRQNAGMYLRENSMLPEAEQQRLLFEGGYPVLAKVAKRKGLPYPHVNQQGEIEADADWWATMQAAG

[3] = biological target: T2, TrmH (tRNA Gm18 methyltransferase) (Thermus thermophilus, UniProt Q5SM16 1-194); test: EMSA; 5 mM Mg-acetate, 400 mM KCl; no SAM listed; tRNA 4.25 uM; 50 mM Tris-HCl pH 7.6, 5 mM Mg-acetate, 6 mM 2-mercaptoethanol, 400 mM KCl, 5% glycerol; room temperature 30 min; 4.25 uM tRNA, 0-17 uM TrmH; 6% native PAGE; settings: protein: recombinant; chain copies: 2; label: none; tRNA cloverleaf, long variable region
T2 sequence: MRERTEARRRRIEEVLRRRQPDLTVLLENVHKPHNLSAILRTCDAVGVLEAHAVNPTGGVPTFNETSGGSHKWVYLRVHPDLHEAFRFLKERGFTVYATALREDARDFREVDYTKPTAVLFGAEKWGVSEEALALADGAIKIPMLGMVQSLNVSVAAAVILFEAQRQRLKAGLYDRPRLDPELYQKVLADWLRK

[4] = biological target: the molecule itself; test: crystal structure; E107G TrmH co-crystallised with 2 mM SAM; hanging-drop vapor diffusion, 20°C, 100 mM HEPES-NaOH (pH 7.6), 5% MPD, 10% PEG 6000; space group C2, one E107G-SAM molecule per asymmetric unit; dimer

In the case of C[S+](CC[C@H](N)C(=O)O)C[C@H]1O[C@@H](n2cnc3c(N)ncnc32)[C@H](O)[C@@H]1O (stereo partly drawn) [S-adenosyl-L-methionine], the “radiometric filter assay, methyl transfer to tRNA transcript” value [1] is reported as “incorporation of the methyl group from [methyl-^3H]-SAM into E. coli tRNA^SerCGA transcript was monitored”.

B1: tRNASerCGA transcript (structured_RNA)
RNA: GGAGAGAUGCCGGAGCGGCUGAACGGACCGGUCUCGAAAACCGGAGUAGGGGCAACUCUACCGGGGGUUCAAAUCCCCCUCUCUCCGCCA
modifications: none (unmodified transcript)
B1: binds [2]; binds [3].

B2: E. coli TrmH (E107G) mutant, tRNA (Gm18) methyltransferase, with 6x His tag (enzyme, UniProt P0AGJ2 1-229, looked up)
chain: T1 sequence with E107G
notes: TrmH, tRNA (Gm18) 2'-O-methyltransferase of Escherichia coli; trmH gene amplified from E. coli HB101 genomic DNA with primers from the start codon to the stop codon; Glu107 replaced with Gly; No removal of the His tag is described; One molecule per asymmetric unit, so the dimer is formed by crystal symmetry; also called E107G mutant TrmH; E107G-SAM; source: E. coli BL21 (DE3) Rosetta 2, …
With B2 the “stoichiometry N” value [4] was 2.
